According to the domain aggregation screens of Martell et al. (2025):

Assay: soluble fraction after stress (log2 fold change); higher = more stays soluble; pooled small domains, quantitative proteomics
Conditions: stress: 75 degC
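Also: 20 min heating vs room temperature control held 20 min.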

Sequence | soluble fraction (log2)
HMIGMDMQELIGRYKGDPDEMGKIELAAMSMLKLSEDMSSDHVLQKSKLRQDGLWLLKYVQE | -0.637
HMIHEQSLHKIRNFIGSLPESLRTAFTLREQDGLSYEEIGKITNTPIGTVRSRIYRARESILDHINQE | -1.23
HMIHIGAQEALGEFQDEEGNLTASKKEVVAALVKKSKEVSFPTSYEYEVAARMAADEYNDAGQRMA | 0.167
HMIHKTDAINLGQRLLKSSLKEFDVSLKDIPNKTLMYILSEYKFNSLDDLYREIGLGNVIPKLVALRMAP | -0.585
HMIHTYVETRKVGNNDGLIRVDNKYYRVPQHLVGMKVQIQIDEATISVLQGGVMVATLDKTADVFNPQA | -3.24
HMIIDPQIRTLWTSQIIDILKSNPKRSIRSILELYPSNKESWVLIILQELIGEEKIIRDLDYLYFNK | -1.79
HMIIIMKMGADESQVQETIKRIKDLGFNTHLSKGENRTIIGVIGDVSSIDESDVERLRATPYIAEVVRVS | -0.455
HMIIIPKKDYDVSQLDNLVSWLKDRGLEVHISRGENLTVIGLIGDTSKIDIDLIRSLDVVEEVKRIQ | -0.749
HMIIVMASSKKEDVAHVVHKIEELGYKAHVIVGVERTVVAAVGDERGKERLISLEALPHVEKVFPILK | -2.16
HMIKEVEYSQFLQMTDQGEVGKVEINEQENSILFTDKAEKNIYKTGMVEDAELSMRLYEAGIPFSGQI | 0.101
HMIKEYEVLNYVTYEYDEIKKKLEEDFGIIVLMKEAYSDETPAGIIMDQDVEQGRIFKEGATNTITFTVS | -0.582
HMIKLSEAEWKVMKLLWEESPKTMMQITNLLKETTGWTKHTVMTFLKRMEEKKAIHYEEGGRAKLYYP | -0.863
HMIKVASVDGASDELAHEIREIMPLDFPVSYFDLDIKYLHKVLNDIPAVESAAIKVTVSGVLQIDISER | 0.569
HMILALAISSEEDDARIYATYADRLREAYPASARVFEGMVDEEHEHRRRLIDLFQRRFGDTIPLVRREHV | -0.446
HMILNPADEEKMNLINFELQQRGLEINDKEMQYIFTHHSRDLNSLLNLAEKLDEISHQEKKSISINLIKKI | -0.0616
HMILNWSEYTRSEIIELARDLSPDKYMIIDDINTYSKMKLLPSQAFIAEMFGSLRQFQKEAWGRE | -1.62
HMILPKFNQLLGQMGENIKLARKRRKLTAVQVSERAGIARSTLYLIEKGDASVSLGAYFNVLRVLG | -1.67
HMIMEVDYGTFMKMTEENAIGRVQMDSTEIIFTDKENTQVYSTGIMYDPDLTQRLYDAGAVFA | -0.536
HMIMGTIEKRGPFSFRIGVQVRLPDGSWEWIRDTIHVSPDLSARAARKQAEMALARLEADVYEGKRKPD | -2.18
HMIMLDRILKIMDYNKFTPSEFADVLEIDRSRLSHILNGRNKPSLEIVMKILEKFPEISSDWLLFGSGNML | -2.73
HMIMNEYEELRDRYLIGQIWKIGDLIEAKGIEGKIIQRGTNYVTFNDNNGKVHKAWLHEIKYEQ | -0.433
HMIMNKEIPVVADEFVEKEFGTGAVKLTPAHDPNDYESGERHGLEVVEVFDETGKMNDLVPEYEG | 0.757
HMIMTGSIQEKNGKYYTVLNIKDKNGKYKKKWQTTGLPVKGNKRKAEQILRRRIAEYEANQL | -0.861
HMIMTHSALLEKDGFDIVKVHFERPNDDGFDFLDMTLPGEIVYKSFGFSEDEILKLKRYAKNNSSLIWDF | -2.5
HMINEDMTQSDRMELWGRLIDVVEDWLAEKGITEEDIPNEEREGVEDAAIIFGDDYDYLADRFSEVIGISR | -1.2
HMINFKVKNVQDVGSRLDKFLVTNIPEFSRSKIQKHIKNGKVMVNGLLKKTGYKLEINDEINILNN | -0.521

Sequence | soluble fraction (log2)
HMINLDYILELIFEKNNKTKDKTALIEEIRGVIRASVGNRAKESLIVDFINDTDLDTITDKASIIESFFEY | -2.97
HMINLTKVGNFISIIKLQQIWTIDELLKKVDINYDELLYLLTILSDIYSKNGEYFFDFDIDAENNKILFNN | 0.0266
HMINVGYKFKQIRENAGLTLKQVSAMSGLSVSFISQIERGVVDPSWSSLKKISAALNIKLKDLF | -2.82
HMIPDLPAIGENLYRERKRQQLSMAELAAASGISKAMLSQIEADKVNPTIATLWKIAHALHVDLESLISGG | -0.965
HMIPDPEKVMFDGGIRLLTQAGITEGKARSILGKWKRDHETERIIAALGAAQREGAIEPVSFIERVLRN | -0.24
HMIPKIIDITDLNEEVREVIEEYMKRKRVEKYHIYQDSKGQIFIISGSAIIRYDSKLNNLYYL | -2.45
HMIPLKTEAIPVSYGDGAAIIRSLAVAFPSRTFHWDAQTRRIIGQALDEEWQVIRSLVWQLDIP | -1.83
HMIPLSDEETILLKLLEATETHLDALIRGSQLSAAKVSVVLMGMEMKRLVKRLPGQMYQRWD | -2.13
HMIPRNLEDLVRENQIGLVILKIVEIIGEDNIRDLDPETIYFINRILNELNLKKIRNNILSEALPPR | -1.36
HMIPSEQYNTALTEIGLSTRAHNSLRRAGIMTLGQLIEKTRDGLPPLPGFGDKSQVEVQDLLTGLGYPI | -0.187
HMIPSGISEHPISKLPLSMSIIHRLELAGIKTIGDITGENFSRLQEIPRIGKVTAKRILEAIQSYSEQLP | -0.401
HMIPYQDPLPKGAEESLLSKYPGFEITGVHFVNDTNFIGYKVRLERGEDREEISLDVNGKFL | -0.308
HMIQADFIPQVEQRLADRGLSMSGDVMAAFLDRAGYGLRHVSNEIEKLSLYLGDRKKVTVEDVVQMVAPVR | -0.381
HMIQAGDLVFIWNPKKGDNFLIKVTPGMSQGTHFGQIKHTELMEREYGEGIVTPKGEVYYLLRPTLAGYTR | -1.21
HMIQIGEQIRYYRTKIGISQEALALMADINPAYIGQIERGIKSPTVNTIKKIANAMGINLHTLFT | -2.94
HMIQKTHPALEIVKEYFSSQAASEFEAERFFNYYTSNGWLIGGKTKMKDWQAAARNWILNTAK | -0.999
HMIQNEITLMLQVNGKLRGQIQVPSDASKEQIEQLAKDSEAAQKALAGASPKKIIVVPGRLVNIV | -0.792
HMIQQFTYAFAKDKGVVVLPGRDVLTLGMRAGADPLVLLEARRALGSSFELEPLDRDTYERTLADVFTADA | -1.39
HMIQRLNVNTEVLSTYIRNSNTPIEYLRQKLPNIDKFLKGELEPTFNQVYALSKLINIPTGLLLLKEPIS | -1.86
HMIQSEQIPFSKFLKEVDSGRVVQVEIQGNNINGVLSDGSKFKTYSPNYPELVGKLSDKGVSIVASPV | 0.091
HMIQTKNVTFTINEKTKIANIPLKSLKILSQEDNRITLSYEKNSLKIDEIISYFSDKNINILDITTD | -1.59
HMIQYRKILELHFKDISQRTISTSVGSSRNTVSDVIKRSEQLGLERLTDNMNNRWLEEFLFPEKQ | -4.15
HMIRALVPGQTLHGEIVGRNGGEVQVRLAEDMILNARVDQNIYLELGKDLTFEVKNNGATLTLSPL | -0.42
HMIRDTTMYPVSVNGKKRYEWTVSKSISDDELKQQVLELEEIKKWIEGHEIKKLIFVPGRAINIV | -0.696
HMIRDVDYNTFVSMVQEGKVGQVEIQEQNNRILFTDKDERTVYKTAMVPDSDLISRLLEAGVSTS | 0.359
HMIRTGEVVTGKVINVKEDQIILNIGFKSDGIITRNEYTNDNSLDLRTVVHEGDEIEAKVLKVNDGEGQVV | 0.401

Sequence | soluble fraction (log2)
HMIRVGRPQYKRGEFVSFDFDNGRKKTEMYGRVDVIDSYGTFGQGREVSYDIRASDGILYKHIPESSVYGF | -1.17
HMIRVVSIEDQPWFVAADVLKSLGMPTDKGVGKYLLALGSDERMLTTHGQIGGKGMAVTTIISESGLY | -0.67
HMISDAEWKIMNVLWEEQPRTMMQITKELQEETGWTKHTVMTYLKRMESKKIIHYVEGEKAKLYYS | -0.133
HMISDDLYQAVLDFTLTQDTISISRLQQNFNLGWPRARQLYDQLMQNGIIEPPDEANSAKGAVVIANKRG | 0.697
HMISIKEAVFPFSRFPGVDTLLGPEMKSTGEVMGLADNFGHAYAKSQIASGSKLPESGTLFVSVKNSD | -0.467
HMISKRFQIDEENAHKRIDIFLSHEFDSISRGIVQELIVKGEVLVNDKVTKRNYKLKTGDLVDITINL | -2.98
HMITDQQKEQLSSLLKQAEAALAKAAANDQVLAAHKDEAVELLKSTSATSADAADLINELTELLKPYQ | 0.973
HMITEDQVIARIGLLSPAEKSLLKDKLERFRRLTLSEQQHLREFHSALDNHDKRTDLLNVLRKYNDWVNQL | -1.99
HMITEQEFQRVAAYVKNKAGINLNEKKVLVQGRLDSYMQRKGYSSYDEFMDRVERFPTGPEAEDLMNALTT | -0.0412
HMITFRINQQSQVGLRLDKFIVQQMPDYSRTRIQSWIKTKNILVNGEGKKSGYALEFDDLVEVTIPE | -4.81
HMITGREMDVLEALWSSEKPLVASDIPKMKPSLSISSVQLALRNLVKKKLVEVADIVYSGTVLSRSYRP | 0.0724
HMITIDNYFNKEKELDFSSFPEALRKGHGFVSKATAHGSSWVSYHSSDAIKKTIDIYLSKLNEYLSNNAKA | -1.08
HMITLYDLLGVSKTASSQEIKTAFKKKALQYHPDKNDGNPDKEEIFKRINMAYQVLGQPQSRANYDFSITP | -0.483
HMITNMIIIMKPNASEEAIEKVKHLIESKGLQAHLSKGDEVTIVGVVGDKTRLHDSNIEISEGVDKIVNVT | 0.497
HMITPAGVPPALLPVFDQFTLPDGTLRRGAVAAALRALYGPDAPQSGKRYQMEYDRVMAWHSQYFTSLH | -0.759
HMITPKQTAETLGIATSTLRRWASEFEPFLSLRTGVKRTYTTDDITTLKRVKDLFAQGLKTEQVREAL | -0.287
HMITPNQAAVTLKVSTSTLRRWSSDFEPFLSPRKGVKRLYTIEDIATLKRIQGLYKQGMNTAQVQA | -2.25
HMITQQEFQQKLEALLSRAEAESFHIKKEEAESFFSGDELTGEQMKLVFDYLLSKKIIVEGYLK | -0.918
HMITTEEVLNRIRKKVDHPATIRELQKALSIADDDRHRFRRRIRTLVASGALVRIRGNRYGLPSK | -0.213
HMITTWAGKATTDVYGRVDANPKADAVLVIKTGWTVQVVGSKTAPDGGTWYKLIYNGKTMYANSKFIVK | -3.65
HMITVEAPMPGKVLSVNVKAGDKVEAGDVLLILEAMKMQNEIMAPEDGTVSDVRVSAGDTVATGDVMVV | 0.0808
HMIVIMAKESSPAELEGVKNRIESHPGLRPQVFDGVERIVVGVLGSIPPDLKDEIELLPGVIEVVPISK | -0.177
HMIVVLKHGVTEQQMRNLIAWFKDQGVDVHVSRGIYQTVLGLVGDTSDIDVDLLRMLDIVDAVKRIT | -2.1
HMIVVMAADSSREDLDLVQGRIEARGLRAQISQGVERIVIGVLGSLPPDLKDEMELLPGVREVLVIS | -1.57
